Here are results for one molecule from article PMC11146590.

For this data set, the target named is Oct4 C48S (purified) (Mus musculus, UniProt P20263 1-352, C178S). In words: EMSA.
Oct4 C48S (purified), sequence (P20263 whole entry C178S): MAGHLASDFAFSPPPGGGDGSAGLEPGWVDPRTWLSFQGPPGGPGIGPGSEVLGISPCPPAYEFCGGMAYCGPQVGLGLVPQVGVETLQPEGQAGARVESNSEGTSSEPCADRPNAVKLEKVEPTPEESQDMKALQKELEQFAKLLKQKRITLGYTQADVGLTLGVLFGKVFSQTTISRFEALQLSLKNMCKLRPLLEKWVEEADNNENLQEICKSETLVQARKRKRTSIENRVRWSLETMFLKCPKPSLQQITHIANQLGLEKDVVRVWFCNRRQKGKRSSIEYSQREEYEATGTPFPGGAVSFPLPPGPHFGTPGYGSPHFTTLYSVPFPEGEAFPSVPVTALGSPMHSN

B1: wild-type octamer probe (dsDNA)
DNA 1: TGTCGAATGCAAATCACT
DNA 2: AGTGATTTGCATTCGACA
For the molecule B1, the binding result was “binds”.
